Measured values taken from article PMC8844075, “Structural basis of neuropeptide Y signaling through Y1 receptor” (Nature Communications, 2022).

What was measured:
[1] = target: Y1R-eYFP (wild-type Y1R) (human) (UniProt P25929)
[2] = target: Y1R-eYFP (wild-type Y1R) (human) (UniProt P25929); remark: listed apart in the source

Chain of Y1R-eYFP (wild-type Y1R) (human) (P25929 whole entry): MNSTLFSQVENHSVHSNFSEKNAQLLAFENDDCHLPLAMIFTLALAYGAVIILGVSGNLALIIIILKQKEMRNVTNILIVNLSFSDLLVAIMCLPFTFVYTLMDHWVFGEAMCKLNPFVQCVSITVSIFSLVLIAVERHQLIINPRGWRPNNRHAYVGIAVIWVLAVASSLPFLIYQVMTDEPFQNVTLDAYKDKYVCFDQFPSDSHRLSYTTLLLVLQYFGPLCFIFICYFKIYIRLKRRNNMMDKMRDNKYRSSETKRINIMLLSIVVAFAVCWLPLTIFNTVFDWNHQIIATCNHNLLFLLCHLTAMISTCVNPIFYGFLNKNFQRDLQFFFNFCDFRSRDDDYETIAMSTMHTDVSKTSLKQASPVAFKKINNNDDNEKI

Row | Binder | signalling assay (Ca2+), decrease in potency compared to full-length NPY [1] | signalling assay, increase of EC50 compared to NPY [2]
1 | ARYYSALRHYINLITRQRY [NPY(18–36)] | 300 fold | –
2 | APLEPVYPGDNATPEQMAQYAADLRRYINMLTRPRY [pancreatic polypeptide (PP)] | – | 64 fold
